The supplement of paper PMC7125110
± gives the standard error. For some assays here: Variants at the floor of the assay were thinned out.

B1: glmS ribozyme (parent)
chain: AUAAAAGCGCCAGAACUACAGAAAUGUAGUUGACGAGGAGGAGGUUUAUCGAAUUUUCGGCGGAUGCCUCCAAA

How the values were obtained:
Conditions in all cases: with glucosamine-6-phosphate
glucosamine-6-phosphate [1] = variants of: B1; assay: kcat; higher = faster cleavage; RNA array
In short: (§1)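 Sequenced MiSeq chips were the platform: E. coli RNA polymerase transcribed barcoded ribozyme variants on them in situ, and a hybridised Cy3 probe tracked these at 37 °C. After glucosamine-6-phosphate (40 μM to 10 mM) in HEPES/KCl/Mg(OAc)2 buffer was flowed in, tiles were imaged over ~14 h. Signals normalised to baseline and to non-cleaving reference variants were reduced to per-tile medians and fit to one- or two-exponential decays to obtain kobs. kcat and KM were derived through weighted Michaelis–Menten fits across concentrations.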

glucosamine-6-phosphate [2] = variants of: B1; assay: self-cleavage kobs at 40 uM GlcN6P; higher = faster cleavage; RNA array
In short: as §1

glucosamine-6-phosphate [3] = variants of: B1; assay: self-cleavage kobs at 160 uM GlcN6P; higher = faster cleavage; RNA array
In short: as §1

glucosamine-6-phosphate [4] = variants of: B1; assay: self-cleavage kobs at 640 uM GlcN6P; higher = faster cleavage; RNA array
In short: as §1

glucosamine-6-phosphate [5] = variants of: B1; assay: self-cleavage kobs at 2500 uM GlcN6P; higher = faster cleavage; RNA array
In short: as §1

glucosamine-6-phosphate [6] = variants of: B1; assay: self-cleavage kobs at 10000 uM GlcN6P; higher = faster cleavage; RNA array
In short: as §1

glucosamine-6-phosphate [7] = variants of: B1; assay: KM; higher = weaker cofactor use; RNA array
In short: as §1

| Variant | kcat (glucosamine-6-phosphate [1]) [s⁻¹] | self-cleavage kobs at 40 uM GlcN6P (glucosamine-6-phosphate [2]) [s⁻¹] | self-cleavage kobs at 160 uM GlcN6P (glucosamine-6-phosphate [3]) [s⁻¹] | self-cleavage kobs at 640 uM GlcN6P (glucosamine-6-phosphate [4]) [s⁻¹] | self-cleavage kobs at 2500 uM GlcN6P (glucosamine-6-phosphate [5]) [s⁻¹] | self-cleavage kobs at 10000 uM GlcN6P (glucosamine-6-phosphate [6]) [s⁻¹] | KM (glucosamine-6-phosphate [7]) [µM] |
| --- | --- | --- | --- | --- | --- | --- | --- |
| AUAAAAGCGCCAGAACUACAGAAAUGUAGUUGACGAGGAGGAGGUCUAUCGAAUUUUCGGCGGAUGCCUGCAAA [U46C C70G] | 0.000447 ± 0.00013 | 6.28e-05 ± 2.3e-05 | 3.81e-05 ± 1.5e-05 | 0.000178 ± 2.9e-05 | 0.000453 ± 6.5e-05 | 0.000346 ± 5.5e-05 |  |
| AUAAAAGCGCUAGAAGUACAGAAAUGUAGUUGACGAGGAGGAGGUUUAUCGAAUUUUCGGCGGAUGCCUCCAAA [C11U C16G] | 0.000546 ± 4.2e-05 |  |  | 0.000104 ± 1.9e-05 | 0.000258 ± 4.8e-05 | 0.000423 ± 5.7e-05 | 2850 ± 410 |
| AUAAAAGCGCCAAAACUACAGAAAUGUAGUUGACGAGGAGGAGGUUGAUCGAAUUUUCGGCGGAUGCCUCCAAA [G13A U47G] | 0.000123 ± 1.6e-05 |  |  | 2.44e-05 ± 9.5e-06 | 8.26e-05 ± 1.3e-05 | 9.97e-05 ± 1.3e-05 | 1830 ± 670 |
| AUAAAAGCGCCAGAACUACAGAAAUGUAGUUGACGAGGAUGAGGUUUAUCGGAUUUUCGGCGGAUGCCUCCAAA [G40U A52G] | 0.000217 ± 3.4e-05 |  |  | 7.61e-05 ± 1.5e-05 | 0.000112 ± 1.8e-05 | 0.000206 ± 2.5e-05 | 1490 ± 600 |
| AUAAAAGCGCCAGAACUACAGAAAUGUAGUUGACGAGGAGGAGGUUUUUCGAAUAUUCGGCGGAUGCCUCCAAA [A48U U55A] | 0.000475 ± 0.0001 |  | 4.63e-05 ± 1.3e-05 | 0.000183 ± 2.7e-05 | 0.000269 ± 3.9e-05 | 0.000532 ± 0.0001 | 1310 ± 530 |
| AUAAAAGCGCCAGAACUACAGAAAUGUAGUUGACGAGGAGGAGGUUUUUCGAAUUUUCGGCGGAGGCCUUCAAA [A48U U65G C70U] | 0.00017 ± 4.1e-05 |  | < 1e-05 |  | 0.000122 ± 2.8e-05 | 0.000132 ± 3e-05 |  |
| AUAAAAGCGCCAGAACUACAGAAAUGUAGUUGACGAGGAGGAGGUUUGUCGAGUUUUCGGCGGAUGCCUCCAAA [A48G A53G] | 0.00014 ± 3.1e-05 |  |  |  | 8.53e-05 ± 1.3e-05 | 0.000105 ± 1.2e-05 |  |
| AUAAAAGCGCCAGAACUACAGAAAUGUAUUUGACGAGGAGGAGGUUUAUCGAAUUUUCGGCGGAUGCCUGCAAA [G29U C70G] | 7.29e-05 ± 6.3e-06 |  |  | 5.02e-05 ± 8.2e-06 | 6.59e-05 ± 7.1e-06 | 6.77e-05 ± 7.7e-06 | 354 ± 150 |
| AUAAAAGCGCCAGAACUACAGAAAUGUAGUUGACGAGGAGGAGGUUUAUCGAAUUUCCGGCGGAUGCAUCCAAA [U57C C68A] | 1.48e-05 ± 1.3e-06 |  |  |  |  | < 1e-05 | 184 ± 90 |
| AUAAAAGCGCCAGAACUACAGAAAUGUAGUUGACGUGGAGGAGGUUUAUCGAAAUUUCGGCGGAUGCCUCCAAA [A36U U54A] | < 1e-05 |  |  |  |  |  |  |
| AUAAAAGCGCUAGAACUACAGAAAUGUAGUUGACGAGCAGGAGGUUUAUCGAAUUUUCGGCGGAUGCCUCCAAA [C11U G38C] | < 1e-05 |  |  | < 1e-05 | < 1e-05 |  |  |
| AUAAAAGCGCCAGAACUACAGAAAUGUAGUUGACGAGGAGGAGGUUUAUCGAAUUUUCGGCGGAUGACUUCAAA [C67A C70U] | 0.00153 ± 0.00062 | 9.1e-05 ± 9.4e-06 | 0.000211 ± 3.6e-05 | 0.000461 ± 6.6e-05 | 0.00129 ± 0.00019 | 0.00206 ± 0.00033 |  |
| AUAAAAGCGCCAGAACUACAGAAAUGUAGUUGACGAGGAGGAGGUUUAUCGAAUUUUCGGCGGAUGCUCCCAAA [C68U U69C] | 8.69e-05 ± 6.8e-06 |  |  |  | 3.88e-05 ± 1.4e-05 | 6.79e-05 ± 1.1e-05 | 2850 ± 730 |
| AUAAAAGCGCCAGAACUACAGAAAUGUAGUUGACGAGGAGGAGGUUUGUCGAAUUUUCGGCGGAUGCCUACAAA [A48G C70A] | 4.63e-05 ± 4.7e-06 |  |  |  | 4.55e-05 ± 1.2e-05 | 4.22e-05 ± 6.5e-06 |  |
| AUAAAAGCGCCACUACUACAGAAAUGUAGUUGACGAGGAGGAGGUUUAUCGAAUUUUCGGCGGAUGCCUCCAAA [G13C A14U] | 0.000311 ± 2.1e-05 |  |  | 6.86e-05 ± 1.5e-05 | 0.000186 ± 3e-05 | 0.00025 ± 3.1e-05 | 2100 ± 320 |
| AUAAAAGCGCCAGAACUACAGAAAUGUAGUUGACGAGGAGGUGGUUUAUCGAAUCUUCGGCGGAUGCCUCCAAA [A42U U55C] | 0.000267 ± 2.5e-05 |  |  | 8.56e-05 ± 9.8e-06 | 0.000198 ± 3e-05 | 0.000223 ± 3e-05 | 1350 ± 250 |
| AUAAAAGCGCCAGAACUACAGAAAUGUAGUUGACGAGGAGGAGGUUUAUCGAAAUUUCGGCGGAUGCCUUCAAA [U54A C70U] | 0.00432 ± 0.00063 | 0.00148 ± 0.00013 | 0.00258 ± 0.00056 | 0.00479 ± 0.0013 | 0.00404 ± 0.0014 |  | 78.3 ± 20 |
| AUAAAAGCGCCAGAACUACAGAAAUGUAGUUGACGAGGAGGAGGUUUAUCGAAUUUUCAGCGGAUGUCUCCAAA [G59A C67U] | 4.36e-05 ± 1.3e-05 |  |  |  |  | 3.54e-05 ± 9.1e-06 |  |
